Assay results as given in PMC11722252.

Target: Caenorhabditis elegans leucine-rich-repeat-containing GPCR (CeLGR), residues Gln31 to Arg712 (Caenorhabditis elegans) (UniProt G5EG04)
Test: MST

Substance “C. elegans α2/β5 heterodimeric hormone (Ceα2β5) (from UniProt A7DT38 20-125) (complex)” has a Kd of 153 nM.
